# Patent US20230220080A1 (EPIMAB BIOTHERAPEUTICS, published 2023)
# B1: cMet antibody h1332 (13.3.2L-A91T,H-42K,S97T) (antibody, V domains shown)
# VH: QVQLVQSGAEVKKPGASVKVSCKASGYTFTSYGFSWVRQAPGQGLEWMGWISASNGNTYYAQKLQGRVTMTTDTSTSTAYMELRSLRSDDTAVYYCARVYADYADYWGQGTLVTVSS
# VL: DIQMTQSPSSVSASVGDRVTITCRASQGINTWLAWYQQKPGKAPKLLIYAASSLKSGVPSRFSGSGSGTDFTLTISSLQPEDFATYYCQQANSFPLTFGGGTKVEIK
# notes: parental mAb; also called mAb-h1332
# B2: FIT013a cMet (h1332 (13.3.2L-A91T,H-42K,S97T))/EGFR (panitumumab) (bispecific antibody, human IgG1, kappa)
# chain 1: not shown
# chain 2: QVQLVQSGAEVKKPGASVKVSCKASGYTFTSYGFSWVRQAPGQGLEWMGWISASNGNTYYAQKLQGRVTMTTDTSTSTAYMELRSLRSDDTAVYYCARVYADYADYWGQGTLVTVSSASTKGPSVFPLAPSSKSTSGGTAALGCLVKDYFPEPVTVSWNSGALTSGVHTFPAVLQSSGLYSLSSVVTVPSSSLGTQTYICNVNHKPSNTKVDKKVEPKSC
# chain 3: not shown
# notes: leader left out; also called FIT013a (c-met/EGFR)
# B3: Epratuzumab (antibody, V domains shown)
# VH: QVQLVQSGAEVKKPGSSVKVSCKASGYTFTSYWLHWVRQAPGQGLEWIGYINPRNDYTEYNQNFKDKATITADESTNTAYMELSSLRSEDTAFYFCARRDITTFYWGQGTTVTVSS
# VL: DIQLTQSPSSLSASVGDRVTMSCKSSQSVLYSANHKNYLAWYQQKPGKAPKLLIYWASTRESGVPSRFSGSGSGTDFTFTISSLQPEDIATYYCHQYLSSWTFGGGTKLEIK
# notes: also called CD22 antibody Epratuzumab
# B4: anti-CD20 mAb Ofatumumab (antibody, V domains shown)
# VH: EVQLVESGGGLVQPGRSLRLSCAASGFTFNDYAMHWVRQAPGKGLEWVSTISWNSGSIGYADSVKGRFTISRDNAKKSLYLQMNSLRAEDTALYYCAKDIQYGNYYYGMDVWGQGTTVTVSS
# VL: EIVLTQSPATLSLSPGERATLSCRASQSVSSYLAWYQQKPGQAPRLLIYDASNRATGIPARFSGSGSGTDFTLTISSLEPEDFAVYYCQQRSNWPITFGQGTRLEIK
# notes: parental mAb
# B5: PD-L1 antibody 1B12 (antibody, V domains shown)
# VH: QVQLVQSGAEVKKPGSSVKVSCKTSGDTFSSYAISWVRQAPGQGLEWMGGIIPIFGRAHYAQKFQGRVTITADESTSTAYMELSSLRSEDTAVYFCARKFHFVSGSPFGMDVWGQGTTVTVSS
# VL: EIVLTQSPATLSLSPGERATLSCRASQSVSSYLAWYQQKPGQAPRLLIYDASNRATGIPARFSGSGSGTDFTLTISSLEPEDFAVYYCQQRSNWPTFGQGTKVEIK
# notes: parental mAb
# B6: EGFR antibody Panitumumab (antibody, V domains shown)
# VH: QVQLQESGPGLVKPSETLSLTCTVSGGSVSSGDYYWTWIRQSPGKGLEWIGHIYYSGNTNYNPSLKSRLTISIDTSKTQFSLKLSSVTAADTAIYYCVRDRVTGAFDIWGQGTMVTVSS
# VL: DIQMTQSPSSLSASVGDRVTITCQASQDISNYLNWYQQKPGKAPKLLIYDASNLETGVPSRFSGSGSGTDFTFTISSLQPEDIATYFCQHFDHLPLAFGGGTKVEIK
# notes: parental mAb
# B7: IGF-1R antibody Figitumumab (antibody, V domains shown)
# VH: EVQLLESGGGLVQPGGSLRLSCTASGFTFSSYAMNWVRQAPGKGLEWVSAISGSGGTTFYADSVKGRFTISRDNSRTTLYLQMNSLRAEDTAVYYCAKDLGWSDSYYYYYGMDVWGQGTTVTVSS
# VL: DIQMTQFPSSLSASVGDRVTITCRASQGIRNDLGWYQQKPGKAPKRLIYAASRLHRGVPSRFSGSGSGTEFTLTISSLQPEDFATYYCLQHNSYPCSFGQGTKLEIK
# notes: parental mAb
# B8: FIT016a HER3 (Patritumab)/IGF1R (Figitumumab) (bispecific antibody, human IgG1, kappa)
# chain 1: not shown
# chain 2: QVQLQQWGAGLLKPSETLSLTCAVYGGSFSGYYWSWIRQPPGKGLEWIGEINHSGSTNYNPSLKSRVTISVETSKNQFSLKLSSVTAADTAVYYCARDKWTWYFDLWGRGTLVTVSSASTKGPSVFPLAPSSKSTSGGTAALGCLVKDYFPEPVTVSWNSGALTSGVHTFPAVLQSSGLYSLSSVVTVPSSSLGTQTYICNVNHKPSNTKVDKKVEPKSC
# chain 3: DIQMTQFPSSLSASVGDRVTITCRASQGIRNDLGWYQQKPGKAPKRLIYAASRLHRGVPSRFSGSGSGTEFTLTISSLQPEDFATYYCLQHNSYPCSFGQGTKLEIKRTVAAPSVFIFPPSDEQLKSGTASVVCLLNNFYPREAKVQWKVDNALQSGNSQESVTEQDSKDSTYSLSSTLTLSKADYEKHKVYACEVTHQGLSSPVTKSFNRGEC
# notes: leader left out
# B9: FIT017a DLL4 (demcizumab)/VEGF (bevcizumab) (bispecific antibody, human IgG1, kappa)
# chain 1: not shown
# chain 2: QVQLVQSGAEVKKPGASVKISCKASGYSFTAYYIHWVKQAPGQGLEWIGYISSYNGATNYNQKFKGRVTFTTDTSTSTAYMELRSLRSDDTAVYYCARDYDYDVGMDYWGQGTLVTVSSASTKGPSVFPLAPSSKSTSGGTAALGCLVKDYFPEPVTVSWNSGALTSGVHTFPAVLQSSGLYSLSSVVTVPSSSLGTQTYICNVNHKPSNTKVDKKVEPKSC
# chain 3: not shown
# notes: leader left out
# B10: FIT019b-Ig EGFR (Panitumumab)/HER3 (patritumab) (bispecific antibody, human IgG1, kappa)
# chain 1: not shown
# chain 2: QVQLQESGPGLVKPSETLSLTCTVSGGSVSSGDYYWTWIRQSPGKGLEWIGHIYYSGNTNYNPSLKSRLTISIDTSKTQFSLKLSSVTAADTAIYYCVRDRVTGAFDIWGQGTMVTVSSASTKGPSVFPLAPSSKSTSGGTAALGCLVKDYFPEPVTVSWNSGALTSGVHTFPAVLQSSGLYSLSSVVTVPSSSLGTQTYICNVNHKPSNTKVDKKVEPKSC
# chain 3: not shown
# notes: leader left out
# B11: FIT022a HER3 (patritumab)/PD-1 (nivolumab) (bispecific antibody, human IgG1, kappa)
# chain 1: not shown
# chain 2: QVQLQQWGAGLLKPSETLSLTCAVYGGSFSGYYWSWIRQPPGKGLEWIGEINHSGSTNYNPSLKSRVTISVETSKNQFSLKLSSVTAADTAVYYCARDKWTWYFDLWGRGTLVTVSSASTKGPSVFPLAPSSKSTSGGTAALGCLVKDYFPEPVTVSWNSGALTSGVHTFPAVLQSSGLYSLSSVVTVPSSSLGTQTYICNVNHKPSNTKVDKKVEPKSC
# chain 3: not shown
# notes: leader left out; also called FIT022a-Ig
# B12: FIT023a cMet (h1332)/PD-L1 (1B12) (bispecific antibody, human IgG1, kappa)
# chain 1: not shown
# chain 2: QVQLVQSGAEVKKPGASVKVSCKASGYTFTSYGFSWVRQAPGQGLEWMGWISASNGNTYYAQKLQGRVTMTTDTSTSTAYMELRSLRSDDTAVYYCARVYADYADYWGQGTLVTVSSASTKGPSVFPLAPSSKSTSGGTAALGCLVKDYFPEPVTVSWNSGALTSGVHTFPAVLQSSGLYSLSSVVTVPSSSLGTQTYICNVNHKPSNTKVDKKVEPKSC
# chain 3: not shown
# notes: leader left out; also called FIT023a-Ig
# B13: OKT3/Ofatumumab FIT7-Ig (bispecific antibody, human IgG1, kappa)
# chain 1: not shown
# chain 2: not shown
# chain 3: not shown
# notes: no linker; also called anti-CD3/CD20 FIT-Ig
# B14: OKT3/Ofatumumab FIT8-Ig (bispecific antibody, human IgG1, kappa)
# chain 1: not shown
# chain 2: not shown
# chain 3: not shown
# notes: GGGGSGS linker
# B15: FIT13a-Ig cMet (h1332)/EGFR (panitumumab) (bispecific antibody, human IgG1, kappa)
# chain 1: not shown
# chain 2: QVQLVQSGAEVKKPGASVKVSCKASGYTFTSYGFSWVRQAPGQGLEWMGWISASNGNTYYAQKLQGRVTMTTDTSTSTAYMELRSLRSDDTAVYYCARVYADYADYWGQGTLVTVSSASTKGPSVFPLAPSSKSTSGGTAALGCLVKDYFPEPVTVSWNSGALTSGVHTFPAVLQSSGLYSLSSVVTVPSSSLGTQTYICNVNHKPSNTKVDKKVEPKSC
# chain 3: not shown
# notes: also called FIT-Ig13a
# What was measured:
# [1] = target: T1, c-Met, recombinant protein (human, UniProt P08581 25-932, limits assumed); test: SPR
# T1 construct: also called human cMet; cMet-his
# [2] = target: T1, c-Met, recombinant protein; test: method not stated
# membrane EGFR on cells = membrane EGFR on cells (human, UniProt P00533 25-1210); test: cell-based or functional assay
# [3] = target: T1, c-Met, recombinant protein; test: protein based binding; method not stated
# Cyno cMet = Cyno cMet (cynomolgus, UniProt A0A2K5UM36 25-932); test: protein based binding; method not stated
# [4] = target: T2, human EGFR, recombinant protein (human, UniProt P00533 25-645); test: protein based binding; method not stated
# T2 construct: also called hEGFR
# Cyno EGFR = Cyno EGFR (cynomolgus, UniProt A0A2K5WK39 25-645); test: protein based binding; method not stated
# [5] = target: T3, CD22 on Raji and Daudi cells (human, UniProt P20273); test: FACS on Raji cells, Alexa Fluor 488 anti-human IgG1, MFI; the curve reaches only about 130 MFI
# T3 construct: on the cell surface of the human B cell lines Raji and Daudi; the sheet names only the cell lines (Raji, Daudi); CD22 is the target that the text gives for Epratuzumab
# [6] = target: T4, CD3 on the cell surface of Jurkat cells (human, UniProt P07766 23-207); test: FACS on Jurkat cells, Alexa Fluor 488 anti-human IgG1, MFI
# T4 construct: whole, on cells; CD3 is a complex of several chains; also called CD3 (Jurkat)
# [7] = target: T5, human PD-L1, recombinant protein (human, UniProt Q9NZQ7 19-239, limits assumed); test: SPR
# T5 construct: also called rhPD-L1; PD-L1-his
# [8] = target: T5, human PD-L1, recombinant protein; test: method not stated
# [9] = target: T5, human PD-L1, recombinant protein; test: SPR Biacore X100, antigen immobilised on CM5, Ig injected
# IGF1R = IGF1R (UniProt P08069 31-932, limits assumed); test: method not stated
# VEGF = VEGF (UniProt P15692-4 27-191, limits assumed); test: method not stated
# [10] = target: T2, human EGFR, recombinant protein; test: method not stated
# hPD1-Fc = target: T6, hPD1-Fc (human, UniProt Q15116 25-167); test: SPR
# T6 construct: not shown: Fc part not described
# [11] = target: T4, CD3 on the cell surface of Jurkat cells; test: FACS on Jurkat cells, 100 nM
# [12] = target: T2, human EGFR, recombinant protein; test: method not stated; remark: listed apart in the source
# T5 sequence (Q9NZQ7 19-239 limits assumed): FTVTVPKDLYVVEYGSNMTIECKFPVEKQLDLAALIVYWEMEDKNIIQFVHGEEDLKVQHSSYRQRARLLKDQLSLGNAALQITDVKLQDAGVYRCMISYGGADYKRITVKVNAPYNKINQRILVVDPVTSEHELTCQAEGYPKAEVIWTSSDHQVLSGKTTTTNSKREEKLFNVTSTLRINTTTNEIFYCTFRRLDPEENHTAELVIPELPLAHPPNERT
# T1 sequence (P08581 25-932 limits assumed): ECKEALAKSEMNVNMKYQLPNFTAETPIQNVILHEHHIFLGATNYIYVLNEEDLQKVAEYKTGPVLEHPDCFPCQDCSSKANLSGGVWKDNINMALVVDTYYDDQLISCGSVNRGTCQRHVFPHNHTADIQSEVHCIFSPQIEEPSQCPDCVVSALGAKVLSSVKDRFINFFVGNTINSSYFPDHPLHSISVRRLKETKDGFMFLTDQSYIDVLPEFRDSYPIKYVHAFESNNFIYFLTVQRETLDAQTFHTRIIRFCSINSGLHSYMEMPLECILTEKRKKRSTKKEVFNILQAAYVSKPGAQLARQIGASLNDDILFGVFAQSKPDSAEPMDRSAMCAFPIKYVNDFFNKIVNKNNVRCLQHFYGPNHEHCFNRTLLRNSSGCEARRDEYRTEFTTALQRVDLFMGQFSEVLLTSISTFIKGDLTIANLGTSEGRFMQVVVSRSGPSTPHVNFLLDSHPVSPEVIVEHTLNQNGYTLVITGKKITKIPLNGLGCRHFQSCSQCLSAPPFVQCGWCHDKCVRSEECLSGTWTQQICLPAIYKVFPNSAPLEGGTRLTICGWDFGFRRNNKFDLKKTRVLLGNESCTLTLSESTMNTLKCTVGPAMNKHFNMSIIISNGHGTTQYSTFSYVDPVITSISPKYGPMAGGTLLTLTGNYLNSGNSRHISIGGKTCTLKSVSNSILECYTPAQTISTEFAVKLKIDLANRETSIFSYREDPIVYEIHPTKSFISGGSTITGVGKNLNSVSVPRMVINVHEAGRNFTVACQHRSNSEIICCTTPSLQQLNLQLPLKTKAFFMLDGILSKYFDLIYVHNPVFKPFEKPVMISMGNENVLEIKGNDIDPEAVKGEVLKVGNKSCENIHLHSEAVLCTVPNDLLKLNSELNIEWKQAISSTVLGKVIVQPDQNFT
# Chain of VEGF (P15692 other isoform, or with tags, fused parts or gaps limits assumed): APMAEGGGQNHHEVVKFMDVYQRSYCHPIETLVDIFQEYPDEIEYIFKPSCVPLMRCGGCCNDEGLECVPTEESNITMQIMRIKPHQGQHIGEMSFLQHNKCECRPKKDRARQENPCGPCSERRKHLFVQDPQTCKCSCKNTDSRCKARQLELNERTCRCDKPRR
# Chain of Cyno cMet (A0A2K5UM36 entry or part of it limits assumed): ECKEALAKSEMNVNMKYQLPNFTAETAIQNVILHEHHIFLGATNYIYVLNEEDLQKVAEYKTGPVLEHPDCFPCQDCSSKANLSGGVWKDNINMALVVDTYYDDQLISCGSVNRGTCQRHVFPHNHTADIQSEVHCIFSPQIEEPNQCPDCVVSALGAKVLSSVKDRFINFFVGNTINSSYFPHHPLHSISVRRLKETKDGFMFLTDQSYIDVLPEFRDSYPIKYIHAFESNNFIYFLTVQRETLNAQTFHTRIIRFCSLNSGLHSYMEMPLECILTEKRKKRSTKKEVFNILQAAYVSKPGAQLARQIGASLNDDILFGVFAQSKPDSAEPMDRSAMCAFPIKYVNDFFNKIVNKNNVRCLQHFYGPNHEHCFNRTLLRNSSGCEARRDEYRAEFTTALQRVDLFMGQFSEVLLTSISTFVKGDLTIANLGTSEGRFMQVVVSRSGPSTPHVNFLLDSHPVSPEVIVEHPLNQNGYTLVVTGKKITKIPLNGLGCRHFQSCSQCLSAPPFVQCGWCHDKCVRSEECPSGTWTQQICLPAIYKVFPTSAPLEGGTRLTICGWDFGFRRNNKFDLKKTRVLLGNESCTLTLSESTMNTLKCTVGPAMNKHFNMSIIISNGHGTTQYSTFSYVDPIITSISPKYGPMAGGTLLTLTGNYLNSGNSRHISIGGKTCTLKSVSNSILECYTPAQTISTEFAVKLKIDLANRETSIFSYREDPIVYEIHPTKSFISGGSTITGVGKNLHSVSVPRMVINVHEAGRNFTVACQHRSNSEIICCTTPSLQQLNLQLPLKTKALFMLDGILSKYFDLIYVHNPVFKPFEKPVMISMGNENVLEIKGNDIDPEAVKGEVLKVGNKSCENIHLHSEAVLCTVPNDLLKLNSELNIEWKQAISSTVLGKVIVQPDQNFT
# T6 sequence (Q15116 25-167): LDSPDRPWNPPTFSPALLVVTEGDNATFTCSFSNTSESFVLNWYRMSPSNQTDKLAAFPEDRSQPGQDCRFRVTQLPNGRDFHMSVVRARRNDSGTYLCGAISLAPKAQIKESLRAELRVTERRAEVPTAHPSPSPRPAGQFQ
binder,measurement,setting,value
B1,Kd,[1],2.19 nM
same,Kd,[2],2.63 nM
same,"EGFR Depletion (%) on H441 cell, FACS",membrane EGFR on cells,0%
same,Kd,[3],1.27 nM
same,Kd,Cyno cMet,4.53 nM
B2,"EGFR Depletion (%) on H441 cell, FACS",membrane EGFR on cells,65.9%
same,Kd,[4],0.534 nM
same,Kd,Cyno EGFR,0.577 nM
B3,EC50,[5],13.2 nM
B4,binding result,[6],no binding (tested: about 130 nM)
B5,Kd,[7],0.708 nM
same,Kd,[8],9.08 nM
same,Kd,[9],0.402 nM
B6,Kd,Cyno EGFR,0.362 nM
B7,Kd,IGF1R,0.729 nM
B8,Kd,IGF1R,2.72 nM
B9,Kd,VEGF,0.0365 nM
B10,Kd,[10],0.338 nM
B11,Kd,hPD1-Fc,2.34 nM
B12,Kd,[1],1.49 nM
same,Kd,[7],0.731 nM
B13,Binding Intensity by FACS (MFI),[11],159 MFI
B14,Binding Intensity by FACS (MFI),[11],211 MFI
B15,Kd,[12],1.52 nM
